Measurements reported in PMC11891140.

How the values were obtained:
[1] = target: EGL-8 used as bait in GST pull-downs of UNC-16 domains (Fig. 5D, 7J) (UniProt G5EBH0); assay: GST pull-down; conditions: GST::EGL-8 bait (x label in J' printed as GST::RAB-8); in vitro translated HA-tagged prey; three independent replicates; parent: est. 3.2; read off a plot
[2] = target: RAB-10 used in GST pull-downs, loaded with GTPγS or GDP (UniProt Q94148); assay: GST pull-down; conditions: GST::RAB-10 loaded with GTPγS; in vitro translated HA-tagged prey; three independent replicates; parent: est. 6.1; read off a plot
Chain of UniProt Q94148 (Q94148 whole entry, the tested form may be a part): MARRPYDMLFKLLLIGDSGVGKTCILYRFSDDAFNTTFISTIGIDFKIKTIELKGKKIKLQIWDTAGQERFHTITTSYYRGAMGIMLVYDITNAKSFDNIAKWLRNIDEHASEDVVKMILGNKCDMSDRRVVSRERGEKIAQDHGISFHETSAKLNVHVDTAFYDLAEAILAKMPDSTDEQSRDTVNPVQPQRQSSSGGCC

[3] = target: purified UNC-16-LZII domain fragment (260–849 aa) (C. elegans); assay: native gel or EMSA; native-PAGE of purified UNC-16-LZII domain and its L360P variant (260–849 aa); dimer formation; three independent experiments
[4] = target: T1, purified UNC-16-LZII domain fragment (260–849 aa), L360P variant; assay: Native-PAGE; conditions: chain shown with the change; three independent experiments; P = 0.0034; parent: est. 0.86; read off a plot
T1 chain: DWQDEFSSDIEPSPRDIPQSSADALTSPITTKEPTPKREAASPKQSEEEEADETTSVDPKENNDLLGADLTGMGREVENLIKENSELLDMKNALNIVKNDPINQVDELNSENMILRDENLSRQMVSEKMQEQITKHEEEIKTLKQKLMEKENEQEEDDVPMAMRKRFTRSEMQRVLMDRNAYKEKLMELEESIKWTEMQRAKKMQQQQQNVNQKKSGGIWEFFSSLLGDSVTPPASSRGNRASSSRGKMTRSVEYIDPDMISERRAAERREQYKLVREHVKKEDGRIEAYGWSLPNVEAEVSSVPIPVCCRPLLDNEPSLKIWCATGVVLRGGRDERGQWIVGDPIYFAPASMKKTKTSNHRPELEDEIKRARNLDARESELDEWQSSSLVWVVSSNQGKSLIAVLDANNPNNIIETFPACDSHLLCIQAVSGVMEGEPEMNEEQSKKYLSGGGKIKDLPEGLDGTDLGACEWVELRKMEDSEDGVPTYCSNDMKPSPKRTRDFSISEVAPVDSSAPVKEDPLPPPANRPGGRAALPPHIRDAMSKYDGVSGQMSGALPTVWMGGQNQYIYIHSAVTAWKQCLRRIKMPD

Chain of UniProt G5EBH0 (G5EBH0 whole entry, the tested form may be a part): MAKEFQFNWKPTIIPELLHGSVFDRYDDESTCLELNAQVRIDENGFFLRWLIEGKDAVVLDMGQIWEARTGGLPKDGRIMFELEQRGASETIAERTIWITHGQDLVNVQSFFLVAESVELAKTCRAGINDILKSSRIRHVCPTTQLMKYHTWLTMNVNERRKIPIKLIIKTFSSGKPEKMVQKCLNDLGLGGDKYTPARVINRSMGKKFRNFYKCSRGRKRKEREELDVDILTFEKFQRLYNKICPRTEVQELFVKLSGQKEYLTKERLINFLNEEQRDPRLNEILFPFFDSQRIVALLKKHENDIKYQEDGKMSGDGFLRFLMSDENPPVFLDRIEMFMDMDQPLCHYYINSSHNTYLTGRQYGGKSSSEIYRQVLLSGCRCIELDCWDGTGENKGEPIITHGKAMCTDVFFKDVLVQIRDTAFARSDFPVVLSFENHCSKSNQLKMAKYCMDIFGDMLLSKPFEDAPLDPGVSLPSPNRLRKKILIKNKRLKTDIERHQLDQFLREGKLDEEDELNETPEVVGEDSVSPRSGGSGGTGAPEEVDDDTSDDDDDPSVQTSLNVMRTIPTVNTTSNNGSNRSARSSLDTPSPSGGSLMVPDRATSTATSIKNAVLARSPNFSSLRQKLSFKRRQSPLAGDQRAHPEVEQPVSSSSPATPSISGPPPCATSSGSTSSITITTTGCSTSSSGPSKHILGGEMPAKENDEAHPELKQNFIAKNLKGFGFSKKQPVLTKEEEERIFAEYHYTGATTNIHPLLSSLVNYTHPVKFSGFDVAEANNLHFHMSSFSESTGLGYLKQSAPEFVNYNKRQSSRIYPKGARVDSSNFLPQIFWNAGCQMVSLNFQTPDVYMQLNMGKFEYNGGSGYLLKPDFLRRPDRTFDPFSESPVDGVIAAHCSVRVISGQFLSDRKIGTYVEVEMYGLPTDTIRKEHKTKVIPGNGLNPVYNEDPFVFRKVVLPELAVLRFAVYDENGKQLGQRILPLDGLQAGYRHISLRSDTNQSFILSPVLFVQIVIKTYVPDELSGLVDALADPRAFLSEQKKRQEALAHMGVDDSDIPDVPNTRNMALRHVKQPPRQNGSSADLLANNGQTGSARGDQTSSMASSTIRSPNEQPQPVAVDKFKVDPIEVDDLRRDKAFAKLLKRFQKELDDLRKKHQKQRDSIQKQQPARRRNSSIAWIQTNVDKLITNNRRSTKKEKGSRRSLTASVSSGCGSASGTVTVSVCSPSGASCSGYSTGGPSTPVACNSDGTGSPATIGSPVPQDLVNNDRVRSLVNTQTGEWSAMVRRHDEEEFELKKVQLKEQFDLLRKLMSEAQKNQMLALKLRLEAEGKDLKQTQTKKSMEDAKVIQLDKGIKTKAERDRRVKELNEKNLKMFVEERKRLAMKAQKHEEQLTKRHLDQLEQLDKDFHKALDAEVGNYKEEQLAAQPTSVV

Molecule: HA-tagged UNC-16 fragment containing the LZII domain (in vitro translated) L353A; N354A; I355A; V356A; K357A; N358A; D359A; L360A; I361A; N362A; Q363A; V364A; D365A; E366A; L367A
- response (binding/input) [1]: 0.1
- response (binding/input) [2]: 0.1

Molecule: HA-tagged UNC-16 fragment containing the LZII domain (in vitro translated) L360P
- response (binding/input) [1]: 0.65

Molecule: purified UNC-16-LZII domain fragment (260–849 aa) (domain or fragment)
- stoichiometry N [3]: 2

B1: purified UNC-16-LZII domain fragment (260–849 aa) L360P (protein)
chain: DWQDEFSSDIEPSPRDIPQSSADALTSPITTKEPTPKREAASPKQSEEEEADETTSVDPKENNDLLGADLTGMGREVENLIKENSELLDMKNALNIVKNDPINQVDELNSENMILRDENLSRQMVSEKMQEQITKHEEEIKTLKQKLMEKENEQEEDDVPMAMRKRFTRSEMQRVLMDRNAYKEKLMELEESIKWTEMQRAKKMQQQQQNVNQKKSGGIWEFFSSLLGDSVTPPASSRGNRASSSRGKMTRSVEYIDPDMISERRAAERREQYKLVREHVKKEDGRIEAYGWSLPNVEAEVSSVPIPVCCRPLLDNEPSLKIWCATGVVLRGGRDERGQWIVGDPIYFAPASMKKTKTSNHRPELEDEIKRARNLDARESELDEWQSSSLVWVVSSNQGKSLIAVLDANNPNNIIETFPACDSHLLCIQAVSGVMEGEPEMNEEQSKKYLSGGGKIKDLPEGLDGTDLGACEWVELRKMEDSEDGVPTYCSNDMKPSPKRTRDFSISEVAPVDSSAPVKEDPLPPPANRPGGRAALPPHIRDAMSKYDGVSGQMSGALPTVWMGGQNQYIYIHSAVTAWKQCLRRIKMPD
- other: ratio of dimer to monomer [4]: 0.58
